Test results: patent publication US20210395344A1 (TWIST BIOSCIENCE, published 2021)
Numbering of substitutions follows the chain as printed.

How the values were obtained:
Assay in all cases: phage ELISA
[1] = biological target: T1, SARS-CoV-2 S1 (subunit 1) protein (SARS-CoV-2, UniProt P0DTC2 16-685)
T1 construct: also called biotinylated SARS-CoV-2 S1

[2] = biological target: T2, COVID S1 RBM Fc fusion (Antigen 2) (SARS-CoV-2, UniProt P0DTC2 437-508)
T2 construct: domain: RBM

[3] = biological target: T3, COVID S1 RBD Fc fusion (Antigen 1) (SARS-CoV-2, UniProt P0DTC2 319-541)
T3 construct: domain: RBD

S1-Fc = S1-Fc (SARS-CoV-2, UniProt P0DTC2 16-685)
[4] = biological target: COVID S1 RBM Fc fusion (Antigen 2) (SARS-CoV-2, UniProt P0DTC2 437-508)
[5] = biological target: COVID S1 RBD Fc fusion (Antigen 1) (SARS-CoV-2, UniProt P0DTC2 319-541)

B1: SARS-CoV-2 variant 1-22 (antibody, V domains shown)
VH: EVQLLESGGGLVQPGGSLRLSCAASGFTFSSYAMNWVRQAPGKGLEWVSIISGSGGSTYYADSVKGRFTISRDNSKNTLYLQMNSLRAEDTAVYYCAREGYRDYLWYFDLWGQGTLVTVSS
VL: QSALTQPASVSGSPGQSITISCTGTSTDVGSYNLVSWYQQHPGKAPKLMIYEGSQRPSGVSNRFSGSKSGNTASLTISGLQAEDEADYYCCSYAGSSTVFGGGTKLTVL
screening ELISA (Avg), fold over background [1]: 40.6 fold over background
specificity ELISA, fold over background [2]: 1.5 fold over background
specificity ELISA, percent binding relative to Acro S1 [2]: 4.7%
specificity ELISA, fold over background [3]: 26.5 fold over background
specificity ELISA, percent binding relative to Acro S1 [3]: 81.2%

B2: SARS-CoV-2 variant 1-21 (antibody, V domains shown)
VH: B1 VH with A33T, N35S
VL: QSALTQPASVSGSPGQSITISCTGTSSDVGSNNLVSWYQQHPGKAPKLMIYEGNKRPSGVSNRFSGSKSGNTASLTISGLQAEDEADYYCCSYAGSVVFGGGTKLTVL
screening ELISA (Avg), fold over background [1]: 47.6 fold over background
specificity ELISA, fold over background [2]: 1.4 fold over background
specificity ELISA, percent binding relative to Acro S1 [2]: 7%
specificity ELISA, fold over background [3]: 14.8 fold over background
specificity ELISA, percent binding relative to Acro S1 [3]: 75.7%

B3: SARS-CoV-2 variant 1-24 (antibody, V domains shown)
VH: B1 VH
VL: B1 VL with T27S, S31Y, S54N, Q55K, S96G, T98V
screening ELISA (Avg), fold over background [1]: 32.9 fold over background
specificity ELISA, fold over background [2]: 1.3 fold over background
specificity ELISA, percent binding relative to Acro S1 [2]: 10.3%
specificity ELISA, fold over background [3]: 11 fold over background
specificity ELISA, percent binding relative to Acro S1 [3]: 85.4%

B4: SARS-CoV-2 variant 1-23 (antibody, V domains shown)
VH: B1 VH with M34I, N35S
VL: B1 VL with T27N, S54N, Q55K, S97Y
screening ELISA (Avg), fold over background [1]: 23.1 fold over background
specificity ELISA, fold over background (S1-Fc): 1.6 fold over background
specificity ELISA, percent binding relative to Acro S1 (S1-Fc): 31.1%
specificity ELISA, fold over background [2]: 1.6 fold over background
specificity ELISA, percent binding relative to Acro S1 [2]: 32%
specificity ELISA, fold over background [3]: 3.6 fold over background
specificity ELISA, percent binding relative to Acro S1 [3]: 70.9%

B5: SARS-CoV-2 variant 2-15 (antibody, V domains shown)
VH: EVQLLESGGGLVQPGGSLRLSCAASGFTFSDFAMAWVRQAPGKGLEWVSAISGSGDITYYADSVKGRFTISRDNSKNTLYLQMNSLRAEDTAVYYCAREADGLHSPWHFDLWGQGTLVTVSS
VL: DIQMTQSPSSLSASVGDRVTITCRASQSIDNYLNWYQQKPGKAPKLLIYGVSALQSGVPSRFSGSGSGTDFTLTISSLQPEDFATYYCQQSHSAPLTFGQGTKVEIK
specificity ELISA, fold over background [4]: 0.9 fold over background
specificity ELISA, percent binding relative to Acro S1 [4]: 3%
specificity ELISA, fold over background [5]: 28.1 fold over background
specificity ELISA, percent binding relative to Acro S1 [5]: 90.6%

B6: SARS-CoV-2 variant 1-38 (antibody, V domains shown)
VH: EVQLLESGGGLVQPGGSLRLSCAASGITFSSYAMSWVRQAPGKGLEWVSGISGSGGSTYYADSVKGRFTISRDNSKNTLYLQMNSLRAEDTAVYYCAKHGSGTIFGVVIAKYYFDYWGQGTLVTVSS
VL: QSALTQPASVSGSPGQSITISCTGTSSDIGSYNLVSWYQQHPGKAPKLMIYEGTKRPSGVSNRFSGSKSGNTASLTISGLQAEDEADYYCCSYAGSRTYVFGGGTKLTVL
screening ELISA (Avg), fold over background [1]: 20.2 fold over background
specificity ELISA, fold over background (S1-Fc): 0.9 fold over background
specificity ELISA, percent binding relative to Acro S1 (S1-Fc): 82.8%
specificity ELISA, fold over background [2]: 1.2 fold over background
specificity ELISA, percent binding relative to Acro S1 [2]: 101%
specificity ELISA, fold over background [3]: 1.5 fold over background
specificity ELISA, percent binding relative to Acro S1 [3]: 128%

B7: SARS-CoV-2 variant 1-17 (antibody, V domains shown)
VH: EVQLLESGGGLVQPGGSLRLSCAASGFTFSSYAMYWVRQAPGKGLEWVSAISGSAGSTYYADSVKGRFTISRDNSKNTLYLQMNSLRAEDTAVYYCARDTNDFWSGYSIFDPWGQGTLVTVSS
VL: B6 VL
screening ELISA (Avg), fold over background [1]: 27.4 fold over background
specificity ELISA, fold over background [2]: 1.3 fold over background
specificity ELISA, percent binding relative to Acro S1 [2]: 5.2%
specificity ELISA, fold over background [3]: 20.1 fold over background
specificity ELISA, percent binding relative to Acro S1 [3]: 79.8%

B8: SARS-CoV-2 variant 1-37 (antibody, V domains shown)
VH: EVQLLESGGGLVQPGGSLRLSCAASGFTFTSYAMNWVRQAPGKGLEWVTAISGSGGSTFYADSVKGRFTISRDNSKNTLYLQMNSLRAEDTAVYYCTRPPYGDYGDYWGQGTLVTVSS
VL: B6 VL
screening ELISA (Avg), fold over background [1]: 27 fold over background
specificity ELISA, fold over background (S1-Fc): 5.4 fold over background
specificity ELISA, percent binding relative to Acro S1 (S1-Fc): 46.7%
specificity ELISA, fold over background [2]: 1.4 fold over background
specificity ELISA, percent binding relative to Acro S1 [2]: 12.3%
specificity ELISA, fold over background [3]: 2 fold over background
specificity ELISA, percent binding relative to Acro S1 [3]: 17.7%

B9: SARS-CoV-2 variant 1-42 (antibody, V domains shown)
VH: B6 VH with I27V, G50A, S52T
VL: B6 VL with I29V, S31R, T54G, G95S, R97S, Y99L
screening ELISA (Avg), fold over background [1]: 34.5 fold over background
specificity ELISA, fold over background [2]: 1 fold over background
specificity ELISA, percent binding relative to Acro S1 [2]: 4.2%
specificity ELISA, fold over background [3]: 20.8 fold over background
specificity ELISA, percent binding relative to Acro S1 [3]: 91.4%

B10: SARS-CoV-2 variant 1-10 (antibody, V domains shown)
VH: EVQLLESGGGLVQPGGSLRLSCAASGFTFSSYDMSWVRQAPGKGLEWVSVISGSGGSTYYADSVKGRFTISRDNSKNTLYLQMNSLRAEDTAVYYCAKGPLVGWYFDLWGQGTLVTVSS
VL: QSALTQPASVSGSPGQSITISCTGTSSNVGSYNLVSWYQQHPGKAPKLMIYEGTKRPSGVSNRFSGSKSGNTASLTISGLQAEDEADYYCCSYAGSSSFVVFGGGTKLTVL
screening ELISA (Avg), fold over background [1]: 16.9 fold over background
specificity ELISA, fold over background [2]: 1.1 fold over background
specificity ELISA, percent binding relative to Acro S1 [2]: 6.2%
specificity ELISA, fold over background [3]: 17.4 fold over background
specificity ELISA, percent binding relative to Acro S1 [3]: 100%

B11: SARS-CoV-2 variant 1-47 (antibody, V domains shown)
VH: EVQLLESGGGLVQPGGSLRLSCAASGFTFSSQAMSWVRQAPGKGLEWVSAISGSGGGTYYADSVKGRFTISRDNSKNTLYLQMNSLRAEDTAVYYCAKDRRFGEFDPWGQGTLVTVSS
VL: B10 VL with N28G, T54I
screening ELISA (Avg), fold over background [1]: 22.6 fold over background
specificity ELISA, fold over background [2]: 0.9 fold over background
specificity ELISA, percent binding relative to Acro S1 [2]: 11.1%
specificity ELISA, fold over background [3]: 5.5 fold over background
specificity ELISA, percent binding relative to Acro S1 [3]: 68.9%

B12: SARS-CoV-2 variant 1-8 (antibody, V domains shown)
VH: B10 VH
VL: B6 VL with S27N, I29V, T54S, T98Y, Y99V
screening ELISA (Avg), fold over background [1]: 19.3 fold over background
specificity ELISA, fold over background [2]: 1.2 fold over background
specificity ELISA, percent binding relative to Acro S1 [2]: 10.3%
specificity ELISA, fold over background [3]: 11.2 fold over background
specificity ELISA, percent binding relative to Acro S1 [3]: 92.9%

B13: SARS-CoV-2 variant 1-26 (antibody, V domains shown)
VH: EVQLLESGGGLVQPGGSLRLSCAASGFTFSSYAISWVRQAPGKGLEWVSAISGSGYSTYYADSVKGRFTISRDNSKNTLYLQMNSLRAEDTAVYYCARGAPDSSGYYFQGEVYFDYWGQGTLVTVSS
VL: B10 VL with N28D, S31G, Y93F, A94V, G95R, S98A, F99H
screening ELISA (Avg), fold over background [1]: 19.5 fold over background
specificity ELISA, fold over background (S1-Fc): 1.3 fold over background
specificity ELISA, percent binding relative to Acro S1 (S1-Fc): 98%
specificity ELISA, fold over background [2]: 1 fold over background
specificity ELISA, percent binding relative to Acro S1 [2]: 74.7%
specificity ELISA, fold over background [3]: 1.1 fold over background
specificity ELISA, percent binding relative to Acro S1 [3]: 76.8%

B14: SARS-CoV-2 variant 1-9 (antibody, V domains shown)
VH: B10 VH
VL: B10 VL with N28D, S31D, T54S, K55N
screening ELISA (Avg), fold over background [1]: 18.5 fold over background
specificity ELISA, fold over background [2]: 1 fold over background
specificity ELISA, percent binding relative to Acro S1 [2]: 9.3%
specificity ELISA, fold over background [3]: 9.8 fold over background
specificity ELISA, percent binding relative to Acro S1 [3]: 91.1%

B15: SARS-CoV-2 variant 1-7 (antibody, V domains shown)
VH: B10 VH
VL: B10 VL with N28D, V29F, T54N, S98T
screening ELISA (Avg), fold over background [1]: 22.5 fold over background
specificity ELISA, fold over background [2]: 1.6 fold over background
specificity ELISA, percent binding relative to Acro S1 [2]: 23%
specificity ELISA, fold over background [3]: 3.3 fold over background
specificity ELISA, percent binding relative to Acro S1 [3]: 48.7%
